Measurements published in paper PMC7608914.

Legend:
[1] = biological target: preformed complex PARP2-QFRD_Alexa488 + Nuc165 (human) (UniProt Q9UGN5); test: FRET or BRET; Alexa647-labeled HPF1 (acceptor) titrated from 18.5 μM to 0 μM into 1 μM Alexa488-labeled PARP2 (donor) alone or into the preformed PARP2–Nuc165 complex (1 μM / 100 nM); 50 mM Tris-HCl pH 8, 50 mM NaCl, 1 mM MgCl2, 0.1 mM EDTA, 0.1 mM TCEP, 0.01% NP-40; Hill model
[2] = biological target: preformed complex PARP2-WT_Alexa488 + Nuc165 (human) (UniProt Q9UGN5); test: as above

Sequence of Alexa647-labeled HPF1 (Q9NWY4 whole entry): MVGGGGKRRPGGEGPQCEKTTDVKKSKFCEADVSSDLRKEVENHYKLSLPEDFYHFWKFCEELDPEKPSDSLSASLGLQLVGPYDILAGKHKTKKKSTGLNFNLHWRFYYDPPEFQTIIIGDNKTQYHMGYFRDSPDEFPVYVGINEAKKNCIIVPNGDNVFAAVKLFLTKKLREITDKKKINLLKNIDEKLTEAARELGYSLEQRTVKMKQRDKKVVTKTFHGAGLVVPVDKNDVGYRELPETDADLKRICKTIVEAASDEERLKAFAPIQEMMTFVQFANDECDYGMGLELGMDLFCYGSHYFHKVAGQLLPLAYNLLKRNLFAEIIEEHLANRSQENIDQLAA

- Kd [1]: 702 nM
- Kd [2]: 279 nM
Substance: Alexa647-labeled HPF1 (from UniProt Q9NWY4 1-346) (natural protein)
